Data taken from publication PMC1475753.

Legend:
φ29 DNA polymerase T573A = target: T1, φ29 DNA polymerase T573A (bacteriophage φ29, UniProt P03680 1-575, T573A); assay: EMSA
T1 sequence: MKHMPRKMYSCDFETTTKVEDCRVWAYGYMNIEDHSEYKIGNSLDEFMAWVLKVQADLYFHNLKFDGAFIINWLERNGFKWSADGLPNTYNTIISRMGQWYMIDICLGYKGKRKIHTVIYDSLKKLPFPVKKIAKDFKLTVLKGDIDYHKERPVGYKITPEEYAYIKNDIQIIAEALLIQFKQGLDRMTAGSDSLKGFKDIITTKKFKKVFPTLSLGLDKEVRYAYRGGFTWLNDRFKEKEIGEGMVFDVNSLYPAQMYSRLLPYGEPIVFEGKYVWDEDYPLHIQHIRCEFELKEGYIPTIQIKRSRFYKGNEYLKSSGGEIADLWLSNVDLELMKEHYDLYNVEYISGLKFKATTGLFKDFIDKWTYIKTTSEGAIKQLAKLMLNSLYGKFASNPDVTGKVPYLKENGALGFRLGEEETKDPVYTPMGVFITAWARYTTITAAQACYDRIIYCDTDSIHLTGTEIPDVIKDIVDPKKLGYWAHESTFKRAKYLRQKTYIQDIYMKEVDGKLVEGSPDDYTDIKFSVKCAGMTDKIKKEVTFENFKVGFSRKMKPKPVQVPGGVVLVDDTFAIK

φ29 DNA polymerase K538A = target: T2, φ29 DNA polymerase K538A (bacteriophage φ29, UniProt P03680 1-575, K538A); assay: EMSA
T2 sequence: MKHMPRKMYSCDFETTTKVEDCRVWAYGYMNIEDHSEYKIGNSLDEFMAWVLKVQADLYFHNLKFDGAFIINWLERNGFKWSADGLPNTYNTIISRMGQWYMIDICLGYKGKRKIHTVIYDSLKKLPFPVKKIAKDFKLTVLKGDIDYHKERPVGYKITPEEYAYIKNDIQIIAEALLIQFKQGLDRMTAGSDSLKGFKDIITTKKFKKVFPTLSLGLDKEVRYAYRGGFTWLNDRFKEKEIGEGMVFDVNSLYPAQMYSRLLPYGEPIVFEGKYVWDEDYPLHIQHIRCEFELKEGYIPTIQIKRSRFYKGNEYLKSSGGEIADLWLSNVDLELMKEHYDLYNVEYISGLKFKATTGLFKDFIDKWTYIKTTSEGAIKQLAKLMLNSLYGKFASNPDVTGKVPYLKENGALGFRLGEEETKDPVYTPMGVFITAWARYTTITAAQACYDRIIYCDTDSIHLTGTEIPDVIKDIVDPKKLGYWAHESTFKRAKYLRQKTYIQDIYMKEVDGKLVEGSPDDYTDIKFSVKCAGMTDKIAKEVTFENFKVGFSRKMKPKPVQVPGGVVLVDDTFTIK

B1: sp1/sp1c+6 (15/21mer) (dsDNA)
DNA 1: GATCACAGTGAGTAC
DNA 2: TCTATTGTACTCACTGTGATC
**Q.** Which results are given for B1?
**A.** binding result (φ29 DNA polymerase T573A): no binding; binding result (φ29 DNA polymerase K538A): no binding
